As usually defined, the stoichiometry N is a count of units in the complex or per binding partner.

The values that follow come from PMC10853775 (Nucleic Acids Research, 2023).

The series deals with the molecule itself. As to the kind of experiment: crystal structure.

B1: human nucleoside diphosphate kinase (NDPKb) (enzyme)
chain: ANLERTFIAIKPDGVQRGLVGEIIKRFEQKGFRLVAMKFLRASEEHLKQHYIDLKDRPFFPGLVKYMNSGPVVAMVWEGLNVVKTGRVMLGETNPADSKPGTIRGDFCIQVGRNIIHGSDSVKSAEKEISLWFKPEELVDYKSCAHDWVYE
As for B1, the “stoichiometry N” value worked out at 6.
